We go through 16 molecules from patent US20250352661A1 (MYTHIC THERAPEUTICS, published 2025).

To fix the notation:
T1: Human LRRC15 Protein, His Tag, Acro Biosystems (human, UniProt Q8TF66 22-538, limits assumed)
T1 construct: not shown: His tag
T1 sequence (looked up): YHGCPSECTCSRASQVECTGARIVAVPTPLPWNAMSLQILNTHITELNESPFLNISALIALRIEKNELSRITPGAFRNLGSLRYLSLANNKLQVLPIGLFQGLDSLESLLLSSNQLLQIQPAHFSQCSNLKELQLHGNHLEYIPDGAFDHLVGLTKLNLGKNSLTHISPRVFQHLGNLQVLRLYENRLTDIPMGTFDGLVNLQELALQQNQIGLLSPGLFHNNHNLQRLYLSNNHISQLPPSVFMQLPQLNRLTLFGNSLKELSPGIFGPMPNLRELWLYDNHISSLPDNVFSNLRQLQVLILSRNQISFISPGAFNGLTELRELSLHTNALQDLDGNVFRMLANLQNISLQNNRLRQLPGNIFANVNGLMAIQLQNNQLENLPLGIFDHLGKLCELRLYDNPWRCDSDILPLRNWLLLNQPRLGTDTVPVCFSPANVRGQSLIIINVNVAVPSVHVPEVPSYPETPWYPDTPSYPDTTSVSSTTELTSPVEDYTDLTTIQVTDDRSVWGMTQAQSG

T2: Human LRRC15 Protein, His Tag (Acro Biosystems) (human, UniProt Q8TF66 22-538, limits assumed)
T2 construct: not shown: His tag
T2 sequence (looked up): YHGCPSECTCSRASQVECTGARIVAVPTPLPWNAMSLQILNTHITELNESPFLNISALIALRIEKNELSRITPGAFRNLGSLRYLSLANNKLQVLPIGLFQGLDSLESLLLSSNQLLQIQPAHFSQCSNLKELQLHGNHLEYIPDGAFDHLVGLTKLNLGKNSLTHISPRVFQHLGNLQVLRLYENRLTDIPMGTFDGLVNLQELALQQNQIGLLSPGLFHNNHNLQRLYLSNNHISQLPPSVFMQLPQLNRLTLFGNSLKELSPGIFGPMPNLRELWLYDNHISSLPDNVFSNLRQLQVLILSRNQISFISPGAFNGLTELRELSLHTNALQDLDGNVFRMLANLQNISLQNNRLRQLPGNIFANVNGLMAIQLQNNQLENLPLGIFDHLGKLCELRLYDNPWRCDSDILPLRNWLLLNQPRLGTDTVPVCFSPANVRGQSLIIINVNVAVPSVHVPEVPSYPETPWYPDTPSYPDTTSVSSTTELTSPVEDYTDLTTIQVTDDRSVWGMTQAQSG

B1: MYT9727 (antibody, V domains shown)
VH: EVQLVESGGGLVQPGGSLRLSCTASGFSFSSSHWICWVRQAPGKGLEWVGCIYAGSIGSTYYASWAKGRFTISRDTSKNTVYLQMNSLRAEDTAVYYCARAPNDIYNYYFNLWGQGTLVTVSS
VL: EIVMTQSPSTLSASVGDRVIITCEASENIYNYLAWYQQKPGKAPKLLIYYASTLASGVPSRFSGSGSGAEFTLTISSLQPDDFATYYCQSGYVSKSSTFGQGTKLTVL
notes: Humanized 29F1 with VL Q24E; captured by anti-human Fc sensor
B2: MYT9728 (antibody, V domains shown)
VH: EVQLVESGGGLVQPGGSLRLSCTASGFSFSSSHWICWVRQAPGKGLEWVGCIYAGSIGSTYYASWAKGRFTISRDTSKNTVYLQMNSLRAEDTAVYYCARAPNDIYNYYFNLWGQGTLVTVSS
VL: EIVMTQSPSTLSASVGDRVIITCQESENIYNYLAWYQQKPGKAPKLLIYYASTLASGVPSRFSGSGSGAEFTLTISSLQPDDFATYYCQSGYVSKSSTFGQGTKLTVL
notes: also called hu29F1 VL A25E
B3: MYT9729 (antibody, V domains shown)
VH: EVQLVESGGGLVQPGGSLRLSCTASGFSFSSSHWICWVRQAPGKGLEWVGCIYAGSIGSTYYASWAKGRFTISRDTSKNTVYLQMNSLRAEDTAVYYCARAPNDIYNYYFNLWGQGTLVTVSS
VL: EIVMTQSPSTLSASVGDRVIITCQAEENIYNYLAWYQQKPGKAPKLLIYYASTLASGVPSRFSGSGSGAEFTLTISSLQPDDFATYYCQSGYVSKSSTFGQGTKLTVL
notes: also called hu29F1 VL S26E
B4: MYT9491 (antibody, V domains shown)
VH: EVQLVESGGGLVQPGGSLRLSCTASGFSFSSSHWICWVRQAPGKGLEWVGCIYAGSIGSTYYASWADGRFTISRDTSKNTVYLQMNSLRAEDTAVYYCARAPNDIYNYYFNLWGQGTLVTVSS
VL: EIVMTQSPSTLSASVGDRVIITCQASENIYNYLAWYQQKPGKAPKLLIYYASTLASGVPSRFSGSGSGAEFTLTISSLQPDDFATYYCQSGYVSKSSTFGQGTKLTVL
notes: also called hu29F1 VH K67D
B5: MYT9489 (antibody, V domains shown)
VH: EVQLVESGGGLVQPGGSLRLSCTASGFSFSSSHWICWVRQAPGKGLEWVGCIYAGSIGSTYYASDAKGRFTISRDTSKNTVYLQMNSLRAEDTAVYYCARAPNDIYNYYFNLWGQGTLVTVSS
VL: EIVMTQSPSTLSASVGDRVIITCQASENIYNYLAWYQQKPGKAPKLLIYYASTLASGVPSRFSGSGSGAEFTLTISSLQPDDFATYYCQSGYVSKSSTFGQGTKLTVL
notes: also called hu29F1 VH W65D
B6: MYT9486 (antibody, V domains shown)
VH: EVQLVESGGGLVQPGGSLRLSCTASGFSFSSSHWICWVRQAPGKGLEWVGCIYAGSIGSTYDASWAKGRFTISRDTSKNTVYLQMNSLRAEDTAVYYCARAPNDIYNYYFNLWGQGTLVTVSS
VL: EIVMTQSPSTLSASVGDRVIITCQASENIYNYLAWYQQKPGKAPKLLIYYASTLASGVPSRFSGSGSGAEFTLTISSLQPDDFATYYCQSGYVSKSSTFGQGTKLTVL
notes: also called hu29F1 VH Y62D
B7: MYT9490 (antibody, V domains shown)
VH: EVQLVESGGGLVQPGGSLRLSCTASGFSFSSSHWICWVRQAPGKGLEWVGCIYAGSIGSTYYASWDKGRFTISRDTSKNTVYLQMNSLRAEDTAVYYCARAPNDIYNYYFNLWGQGTLVTVSS
VL: EIVMTQSPSTLSASVGDRVIITCQASENIYNYLAWYQQKPGKAPKLLIYYASTLASGVPSRFSGSGSGAEFTLTISSLQPDDFATYYCQSGYVSKSSTFGQGTKLTVL
notes: also called hu29F1 VH A66D
B8: MYT9487 (antibody, V domains shown)
VH: EVQLVESGGGLVQPGGSLRLSCTASGFSFSSSHWICWVRQAPGKGLEWVGCIYAGSIGSTYYDSWAKGRFTISRDTSKNTVYLQMNSLRAEDTAVYYCARAPNDIYNYYFNLWGQGTLVTVSS
VL: EIVMTQSPSTLSASVGDRVIITCQASENIYNYLAWYQQKPGKAPKLLIYYASTLASGVPSRFSGSGSGAEFTLTISSLQPDDFATYYCQSGYVSKSSTFGQGTKLTVL
notes: also called hu29F1 VH A63D
B9: MYT9485 (antibody, V domains shown)
VH: EVQLVESGGGLVQPGGSLRLSCTASGFSFSSSHWICWVRQAPGKGLEWVGCIYAGSIGSTDYASWAKGRFTISRDTSKNTVYLQMNSLRAEDTAVYYCARAPNDIYNYYFNLWGQGTLVTVSS
VL: EIVMTQSPSTLSASVGDRVIITCQASENIYNYLAWYQQKPGKAPKLLIYYASTLASGVPSRFSGSGSGAEFTLTISSLQPDDFATYYCQSGYVSKSSTFGQGTKLTVL
notes: also called hu29F1 VH Y61D
B10: MYT9481 (antibody, V domains shown)
VH: EVQLVESGGGLVQPGGSLRLSCTASGFSFSSSHWICWVRQAPGKGLEWVGCIYAGSDGSTYYASWAKGRFTISRDTSKNTVYLQMNSLRAEDTAVYYCARAPNDIYNYYFNLWGQGTLVTVSS
VL: EIVMTQSPSTLSASVGDRVIITCQASENIYNYLAWYQQKPGKAPKLLIYYASTLASGVPSRFSGSGSGAEFTLTISSLQPDDFATYYCQSGYVSKSSTFGQGTKLTVL
notes: also called hu29F1 VH I57D
B11: MYT9493 (antibody, V domains shown)
VH: EVQLVESGGGLVQPGGSLRLSCTASGFSFSSSHWICWVRQAPGKGLEWVGCIYAGSIGSTYYASWAKGRFTISRDTSKNTVYLQMNSLRAEDTAVYYCDRAPNDIYNYYFNLWGQGTLVTVSS
VL: EIVMTQSPSTLSASVGDRVIITCQASENIYNYLAWYQQKPGKAPKLLIYYASTLASGVPSRFSGSGSGAEFTLTISSLQPDDFATYYCQSGYVSKSSTFGQGTKLTVL
notes: Humanized 29F1 VH aspartate variant; also called hu29F1 VH A99D
B12: MYT9494 (antibody, V domains shown)
VH: EVQLVESGGGLVQPGGSLRLSCTASGFSFSSSHWICWVRQAPGKGLEWVGCIYAGSIGSTYYASWAKGRFTISRDTSKNTVYLQMNSLRAEDTAVYYCADAPNDIYNYYFNLWGQGTLVTVSS
VL: EIVMTQSPSTLSASVGDRVIITCQASENIYNYLAWYQQKPGKAPKLLIYYASTLASGVPSRFSGSGSGAEFTLTISSLQPDDFATYYCQSGYVSKSSTFGQGTKLTVL
notes: also called hu29F1 VH R100D
B13: MYT9488 (antibody, V domains shown)
VH: EVQLVESGGGLVQPGGSLRLSCTASGFSFSSSHWICWVRQAPGKGLEWVGCIYAGSIGSTYYADWAKGRFTISRDTSKNTVYLQMNSLRAEDTAVYYCARAPNDIYNYYFNLWGQGTLVTVSS
VL: EIVMTQSPSTLSASVGDRVIITCQASENIYNYLAWYQQKPGKAPKLLIYYASTLASGVPSRFSGSGSGAEFTLTISSLQPDDFATYYCQSGYVSKSSTFGQGTKLTVL
notes: also called hu29F1 VH S64D
B14: MYT9476 (antibody, V domains shown)
VH: EVQLVESGGGLVQPGGSLRLSCTASGFSFSSSHWICWVRQAPGKGLEWVGCDYAGSIGSTYYASWAKGRFTISRDTSKNTVYLQMNSLRAEDTAVYYCARAPNDIYNYYFNLWGQGTLVTVSS
VL: EIVMTQSPSTLSASVGDRVIITCQASENIYNYLAWYQQKPGKAPKLLIYYASTLASGVPSRFSGSGSGAEFTLTISSLQPDDFATYYCQSGYVSKSSTFGQGTKLTVL
notes: also called hu29F1 VH I52D
B15: MYT9480 (antibody, V domains shown)
VH: EVQLVESGGGLVQPGGSLRLSCTASGFSFSSSHWICWVRQAPGKGLEWVGCIYAGDIGSTYYASWAKGRFTISRDTSKNTVYLQMNSLRAEDTAVYYCARAPNDIYNYYFNLWGQGTLVTVSS
VL: EIVMTQSPSTLSASVGDRVIITCQASENIYNYLAWYQQKPGKAPKLLIYYASTLASGVPSRFSGSGSGAEFTLTISSLQPDDFATYYCQSGYVSKSSTFGQGTKLTVL
notes: Humanized 29F1 VH aspartate variant; also called hu29F1 VH S56D
B16: MYT9484 (antibody, V domains shown)
VH: EVQLVESGGGLVQPGGSLRLSCTASGFSFSSSHWICWVRQAPGKGLEWVGCIYAGSIGSDYYASWAKGRFTISRDTSKNTVYLQMNSLRAEDTAVYYCARAPNDIYNYYFNLWGQGTLVTVSS
VL: EIVMTQSPSTLSASVGDRVIITCQASENIYNYLAWYQQKPGKAPKLLIYYASTLASGVPSRFSGSGSGAEFTLTISSLQPDDFATYYCQSGYVSKSSTFGQGTKLTVL
notes: also called hu29F1 VH T60D

One assay deals with T1, Human LRRC15 Protein, His Tag, Acro …. Description: BLI; dissociation pH 7.4 black, pH 5.4 grey [D00028 FIG. 7B].
Turning to B1, the binding result is “binds”.
Still for that read-out and setting: with B2 the entry was “binds”; with B3, “binds”.

Another assay has as its target T2, Human LRRC15 Protein, His Tag (Acro …). Description: BLI; dissociation pH 7.4 black, pH 5.4 grey [1/2); D00019 FIG. 4B (1/2]. The procedure: Desirable mutations were transferred to a humanized framework (humanized, MYT 8387-8411). After allowing for four days of protein expression, cell culture supernatants were collected, quantified by SDS-PAGE analysis, and the pH dependence of the variant was evaluated using biolayer interferometry (BLI) on an Octet RED 96e instrument. Briefly, cell culture supernatants were diluted based on qualitative expression level of the variant determined by visual examination of SDS-PAGE gels, 5 μL of cell culture supernatant was diluted into 195 μL of 1×PBST, pH 7.4 for high expressors, 25 μL of cell culture supernatant was diluted into 175 μL of 1×PBST, pH 7.4 for medium expressors and 100 μL of cell culture supernatant was diluted into 100 μL of 1×PBST, pH 7.4 for low expressors for loading onto the sensor tips. The resulting diluted supernatants were then captured on an anti-human Fc sensor (Forte Bio). A baseline was established using 1×PBST (50 mM Potassium Phosphate Buffer+150 mM NaCl+0.05% Tween 20) pH 7.4, and the […] was associated with 50 nM of LRRC15 (Human LRRC15 Protein, His Tag, Acro Biosystems) in 1×PBST pH 7.4 for 120 sec to generate an association curve. In the dissociation phase, the antibody-antigen complex on the sensor was exposed to 1×PBST pH 7.4 or pH 5.4, for 300 sec. Association and dissociation phase curves were examined for the starting ABPC antibody (with no substitutions) and each corresponding antibody variant at pH 5.4 and pH 7.4 to inform on two criteria: a) enhanced dissociation (i.e., higher koff values) at pH 5.4 due to histidine substitution compared to the starting ABPC, (with no substitutions), and b) reduced dissociation at pH 7.4 (i.e., lower koff values) compared to pH 5.4 in the antibody variant itself and with the starting ABPC (with no substitutions).
The methods of Examples 9-10 were applied to RabMAb clone 29F1 (rabbit VH SEQ ID NO: 572 and VL SEQ ID NO: 578; and humanized VH SEQ ID NO: 576 and VL SEQ ID NO: 582).
For orientation: BLI is a label-free optical method that tracks binding on a fibre tip over time.
Regarding B4, the binding result is “binds”.
Consider B5, for which the binding result is “binds”.
On to B6, for which the binding result is “binds”.
Regarding B7, the binding result is “binds”.
The same measure, in the same setting: under B8 stands “binds”; under B9, “binds”; under B10, “binds”.
Same read-out and setting: with B11 the entry was “binds”.
The same measure, in the same setting: with B12 the entry was “binds”; with B13, “binds”; with B14, “binds”.
In the case of B15, the binding result is on record as “binds”.
On the same count and under the same terms, with B16 the entry was “binds”.
